B1: Corticotropin-releasing factor receptor 1 (Homo sapiens), P34998 (parent)
chain: MGGHPQLRLVKALLLLGLNPVSASLQDQHCESLSLASNISGLQCNASVDLIGTCWPRSPAGQLVVRPCPAFFYGVRYNTTNNGYRECLANGSWAARVNYSECQEILNEEKKSKVHYHVAVIINYLGHCISLVALLVAFVLFLRLRSIRCLRNIIHWNLISAFILRNATWFVVQLTMSPEVHQSNVGWCRLVTAAYNYFHVTNFFWMFGEGCYLHTAIVLTYSTDRLRKWMFICIGWGVPFPIIVAWAIGKLYYDNEKCWFGKRPGVYTDYIYQGPMILVLLINFIFLFNIVRILMTKLRASTTSETIQYRKAVKATLVLLPLLGITYMLFFVNPGEDEVSRVVFIYFNSFLESFQGFFVSVFYCFLNSEVRSAIRKRWHRWQDKHSIRARVARAMSIPTSPTRVSFHSIKQSTAV

Variants of: B1
Details: with GNAI2, P04899-1
Sequence of GNAI2, P04899-1 (P04899 whole entry): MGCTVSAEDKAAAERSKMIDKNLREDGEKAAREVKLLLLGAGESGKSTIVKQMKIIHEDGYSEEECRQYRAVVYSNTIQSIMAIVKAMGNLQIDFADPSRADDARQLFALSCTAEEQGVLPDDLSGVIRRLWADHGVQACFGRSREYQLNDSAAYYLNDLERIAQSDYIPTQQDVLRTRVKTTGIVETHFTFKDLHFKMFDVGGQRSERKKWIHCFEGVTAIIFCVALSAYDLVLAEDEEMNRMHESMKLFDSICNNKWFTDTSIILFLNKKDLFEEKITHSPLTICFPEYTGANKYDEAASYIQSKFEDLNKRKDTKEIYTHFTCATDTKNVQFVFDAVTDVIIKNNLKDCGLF

| effect of a mutation on the interaction | Variant |
| --- | --- |
| decreasing interaction strength | MGGHPQLRLVKALLLLGLNPVSASLQDQHCESLSLASNISGLQCNASVDLIGTCWPRSPAGQLVVRPCPAFFYGVRYNTTNNGYRECLANGSWAARVNYSECQEILNEEKKSKVHYHVAVIINYLGHCISLVALLVAFVLFLRLRSIRCLRNIIHWNLISAFILRNATWFVVQLTMSPEVHQSNVGWCRLVTAAYNYFHVTNFFWMFGEGCYLHTAIVLTYSTDRLRKWMFICIGWGVPFPIIVAWAIGKLYYDNEKCWFGKRPGVYTDYIYQGPMILVLLINFIFLFNIVRILMTKLRASTTSETIQYRKAVAATLVLLPLLGITYMLFFVNPGEDEVSRVVFIYFNSFLESFQGFFVSVFYCFLNSEVRSAIRKRWHRWQDKHSIRARVARAMSIPTSPTRVSFHSIKQSTAV [K314A] |
| decreasing interaction strength | MGGHPQLRLVKALLLLGLNPVSASLQDQHCESLSLASNISGLQCNASVDLIGTCWPRSPAGQLVVRPCPAFFYGVRYNTTNNGYRECLANGSWAARVNYSECQEILNEEKKSKVHYHVAVIINYLGHCISLVALLVAFVLFLRLRSIRCLRNIIHWNLISAFILRNATWFVVQLTMSPEVHQSNVGWCRLVTAAYNYFHVTNFFWMFGEGCYLHTAIVLTYSTDRLRKWMFICIGWGVPFPIIVAWAIGKLYYDNEKCWFGKRPGVYTDYIYQGPMILVLLINFIFLFNIVAILMTKLRASTTSETIQYRKAVKATLVLLPLLGITYMLFFVNPGEDEVSRVVFIYFNSFLESFQGFFVSVFYCFLNSEVRSAIRKRWHRWQDKHSIRARVARAMSIPTSPTRVSFHSIKQSTAV [R292A] |
